{"source": "paper PMC10457309", "data": [{"molecular_target": "HH-120 (IgM-like hACE2-Fc fusion protein) (UniProt Q9BYF1)", "assay": "SPR", "units": {"Kd": "nM"}, "values": [{"substance": "S trimer protein of the SARS-CoV-2 Alpha variant (from UniProt P0DTC2) (natural protein)", "Kd": 1}, {"substance": "S trimer protein of the SARS-CoV-2 Beta variant (from UniProt P0DTC2) (natural protein)", "Kd": 1}, {"substance": "S trimer protein of the SARS-CoV-2 Delta variant (from UniProt P0DTC2) (natural protein)", "Kd": 1}, {"substance": "S trimer protein of the SARS-CoV-2 Omicron variant (from UniProt P0DTC2) (natural protein)", "Kd": 1}]}]}
